In test [1] the target is T1, chimeric IL-10 receptor (human IL-10Rα and IL-10Rβ / mouse G-CSF receptor) in Ba/F3 cell line 10G (Homo sapiens, UniProt Q08334+Q13651).
T1 construct: from the 1st to the 235th amino acid residue; from the 1st to the 220th amino acid residues; expressed in transfected cells; host or cells: mouse Ba/F3 cells co-transfected with pCV-cIL10Rα and pCV-cIL10Rβ, clone 10G#10 = 10G
T1 sequence (Q13651 22-235): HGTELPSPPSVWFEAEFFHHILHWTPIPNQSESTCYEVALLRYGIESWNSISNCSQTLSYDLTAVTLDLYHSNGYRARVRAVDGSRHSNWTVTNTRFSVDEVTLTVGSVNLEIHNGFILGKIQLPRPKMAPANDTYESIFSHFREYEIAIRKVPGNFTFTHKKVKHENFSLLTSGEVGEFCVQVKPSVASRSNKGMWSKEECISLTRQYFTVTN
T1 sequence (Q08334 20-220): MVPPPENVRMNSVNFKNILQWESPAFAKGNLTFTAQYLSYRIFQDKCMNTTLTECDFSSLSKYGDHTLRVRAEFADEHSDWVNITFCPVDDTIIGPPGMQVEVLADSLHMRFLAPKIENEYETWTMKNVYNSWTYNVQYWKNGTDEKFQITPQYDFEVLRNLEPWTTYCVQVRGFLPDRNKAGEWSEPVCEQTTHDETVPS
T1 sequence (P40223 627-837 partner limits assumed): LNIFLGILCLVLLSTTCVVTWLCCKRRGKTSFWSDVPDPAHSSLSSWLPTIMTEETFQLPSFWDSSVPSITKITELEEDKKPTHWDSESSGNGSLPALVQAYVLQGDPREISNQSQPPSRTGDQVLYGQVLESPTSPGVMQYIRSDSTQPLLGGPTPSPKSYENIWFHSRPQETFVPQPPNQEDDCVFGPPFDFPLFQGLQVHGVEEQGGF
Description: Growth response of chimeric IL-10 receptor-expressing Ba/F3 cell line 10G (WST-8). The test is classed as cell-based. The note with it: 72 hours culture, WST-8 absorbance. From the text:
Chimeric receptor cDNAs were constructed by linking cDNA fragments encoding the α chain (IL-10Rα) (from the 1st to the 235th amino acid residue; Liu, Y. et al. (1994) J. Immunol. 152, 1821-1829) and the hIL-10R subunit (CRFB4; IL-10Rβ) extracellular domain (from the 1st to the 220th amino acid residues; Lutfalla, G. et al. (1993) Genomics 16, 366-373) of human IL-10 receptor with the transmembrane and intracellular domains (from the 602nd to the 813th amino acid residues; Fukunaga, R. et al. (1990) Cell 61, 341-350) of mouse G-CSF receptor, respectively. […]
The cells were washed twice with Media A, and were suspended in Media A to give a cell density of 5×10^4 cells/mL. […] After the culture, 10 μL/well WST-8 reagent (Cell Count Reagent SF; Nacalai Tesque) was added, and pre-reaction absorbance at a measurement wavelength of 450 nm and a control wavelength of 655 nm was measured using microplate reader (Model 3550, Bio Rad). The plate was incubated for two hours in a CO2 incubator (CO2 concentration, 5%), and post-reaction absorbance was measured as above. […]

The target in test [2] is T2, chimeric TPO receptor (human TPO receptor extracellular domain / mouse G-CSF receptor) in Ba/F3 cell line TPG (Homo sapiens, UniProt P40238).
T2 construct: from the 1st to the 491st amino acid residues; expressed in transfected cells; host or cells: mouse Ba/F3 cells, clone TPG#219 = TPG
T2 sequence (P40238 26-491): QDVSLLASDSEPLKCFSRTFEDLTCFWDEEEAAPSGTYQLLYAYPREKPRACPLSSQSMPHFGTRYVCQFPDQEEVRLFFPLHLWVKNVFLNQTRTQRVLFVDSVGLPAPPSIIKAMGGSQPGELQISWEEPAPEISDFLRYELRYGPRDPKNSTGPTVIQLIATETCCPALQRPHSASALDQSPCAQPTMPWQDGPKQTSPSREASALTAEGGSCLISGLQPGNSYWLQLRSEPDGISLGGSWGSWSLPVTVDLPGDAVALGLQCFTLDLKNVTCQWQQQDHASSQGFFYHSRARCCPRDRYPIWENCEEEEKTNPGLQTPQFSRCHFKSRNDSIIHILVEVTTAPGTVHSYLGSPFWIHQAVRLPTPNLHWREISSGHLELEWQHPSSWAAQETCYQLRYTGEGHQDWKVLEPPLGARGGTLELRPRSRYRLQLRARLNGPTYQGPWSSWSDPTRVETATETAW
The test can be described thus: Growth response of chimeric TPO receptor-expressing Ba/F3 cell line TPG (WST-8). The test is classed as cell-based. The note with it: 72 hours culture, WST-8 absorbance. The text has this: A chimeric receptor cDNA was constructed by linking cDNA fragments encoding the extracellular domain (from the 1st to the 491st amino acid residues; Vigon, I. et al. (1992) Proc. Natl. Acad. Sci. USA 89, 5640-5644) of human TPO receptor, and the transmembrane and intracellular domains (from the 602nd to the 813th amino acid residues; Fukunaga, R. et al. (1990) Cell 61, 341-350) of mouse G-CSF receptor. The cDNA was inserted downstream of the EF1α promoter of the mammalian expression vector pCOS-G to construct chimeric receptor-expression vector TG/pCOS-G. TG/pCOS-G was linearized with Pvu I (Takara Shuzo), extracted with phenol and chloroform, and purified by ethanol precipitation.
The linearized expression gene vector was introduced into mouse Ba/F3 cells (purchased from RIKEN; Cell No.: RCB0805) using an electroporation apparatus (Gene Pulser: Bio Rad) The Ba/F3 cells were washed twice with Dulbecco's PBS (hereinafter referred to as PBS), and then were suspended in PBS to give a cell density of about 1×10^7 cells/mL. […]
The cells were washed twice with Media A, and were suspended in Media A to give a cell density of 5×10^4 cells/mL. […] The absorbance at a measurement wavelength of 450 nm and a control wavelength of 655 nm after the 2 hours incubation was measured using microplate reader (Model 3550, Bio Rad).

In test [3] the test system is mixed culture of cell lines GFG, EPG, TPG and parental Ba/F3. Description: Cytokine responses in mixed and individual cell cultures (Example 2). The test is classed as cell-based, mouse. Conditions: mixed culture of four cell lines (each 4×10^3 cells/well), similar in individual cultures, 72 hours, WST-8; listed as hTPO. As to the method: Mixed culture of the cell lines GFG, EPG, and TPG, which express human G-CSF, EPO, and TPO chimeric receptors, respectively, and their parental cell line Ba/F3 was conducted and their response to various cytokines was examined.
The cells were washed twice with RPMI1640 media containing 2% fetal bovine serum, and then were suspended in RPMI1640 containing 10% fetal bovine serum. The four cell lines were mixed by adjusting each of the cell lines to 4×10^4 cells/mL (16×10^4 cells/mL in total) for the mixed culture, and, for individual cultures, cells were prepared at 4×10^4 cells/mL. 100 μL each of the cells were independently seeded on a 96-well microtiter plate (flat bottom, Falcon). After adding 100 μL/well each of appropriately diluted cytokines, the cultures were cultured for 72 hours in a CO2 incubator (5% CO2 concentration). After the culture, 10 μL/well WST-8 reagent (Cell Count Reagent SF; Nacalai Tesque) was added, and pre-reaction absorbance at a measurement wavelength of 450 nm and a control wavelength of 655 nm was measured using a microplate reader (Model 3550, Bio Rad). The plate was incubated for two hours in a CO2 incubator (CO2 concentration, 5%), and post-reaction absorbance was measured as above. Data were graphed out taking the cytokine concentrations on the horizontal axis and the amount of changes in absorbance after 2-hour incubation on the vertical axis (FIGS. 18, 19, and 20).

Here are results for two substances from patent US7732133B2, “Screening methods for biologically active ligands” (Chugai Seiyaku Kabushiki Kaisha, priority 2000, dated 2010).

A value given as a limit tells only on which side of the number the result lay.

For “human IL-10: human interleukin 10 (Genzyme)”, in test [1], the “concentration at which an evident growth reaction was observed” value is given as at least 0.5 ng/mL.

Turning to thrombopoietin [human TPO], the “concentration at which an evident growth reaction was observed” value in test [2] was at least 100 pg/mL. Further, the “concentration where the response was observed to start” value in test [3] was found to be 200 pg/mL.
